Assay [1] addresses αVβ3 integrin (UniProt P06756).
Assay [2] addresses αVβ3 integrin (UniProt P06756). This is another data set of the same source.
In assay [3] the target is αVβ3 integrin (UniProt P06756). Nature of the assay: BLI; Octet Red 96; biotinylated αVβ3 integrin on streptavidin (SAX) biosensors, usGNPs in solution, association 40-60 min; 50 mM HEPES pH 7.4, 150 mM NaCl, 5 mM KCl, 0.1% BSA, 0.05% Tween 20, 50 µM CaCl2; 30 °C; Kd approximated from the response at equilibrium against usGNP concentration, fit to the Hill equation.

For the substance “DM1-cRGD-usGNP, (α-Galactose-C2)135(PEG(8)COOH)115(cRGD)20(DM1)20@Au2000”, in the assay with αVβ3 integrin [1], the cytotoxicity on αVβ3 integrin expressing U-87 MG cells (XTT viability, 3 days), IC50 in DM1 equivalent concentration; DM1-usGNP without cRGD 25.2 nM came to 5 nM.
Take “HighcRAD-usGNP, (α-Galactose-C2)145(PEG(8)COOH)85(cRAD)60@Au2000”: in the assay with αVβ3 integrin [2], the uptake by U-87 MG cells (high αVβ3 integrin), 1 × 10^8 particles per cell, 60 min, internalised gold by ICP-MS (usGNPs per cell) is 2.7e+06.
“HighcRGD-usGNP, (α-Galactose-C2)145(PEG(8)COOH)85(cRGD)60@Au2000” showed a Kd with αVβ3 integrin [3] of 0.0292 nM. Further, the uptake by U-87 MG cells (high αVβ3 integrin), 1 × 10^8 particles per cell, 60 min, internalised gold by ICP-MS (usGNPs per cell) in the assay with αVβ3 integrin [2] was found to be 1.67e+07.
As to “LowcRAD-usGNP, (α-Galactose-C2)145(PEG(8)COOH)125(cRAD)20@Au2000”, the uptake by U-87 MG cells (high αVβ3 integrin), 1 × 10^8 particles per cell, 60 min, internalised gold by ICP-MS (usGNPs per cell) in the assay with αVβ3 integrin [2] was found to be 1.6e+06.
“LowcRGD-usGNP, (α-Galactose-C2)145(PEG(8)COOH)125(cRGD)20@Au2000”: the equilibrium dissociation constant (Kd) with αVβ3 integrin [3] is 3.2 nM. In the assay with αVβ3 integrin [2], the uptake by U-87 MG cells (high αVβ3 integrin), 1 × 10^8 particles per cell, 60 min, internalised gold by ICP-MS (usGNPs per cell) worked out at 4.9e+06.
